Values quoted from earlier work in article PMC2744096.

Target: MLL (Homo sapiens) (UniProt Q03164)

In the case of CBP KIX (from UniProt Q92793), the Kd is listed as 3000 nM.
